Laboratory results from patent publication US20220213176A1.

Biological target: SARS-CoV-2 K417N+E484K+N501Y+D614G mutant pseudovirus spike (spikeΔ19) (SARS-CoV-2) (UniProt P0DTC2)
Test: cell-based or functional assay

Substance: S309 dimer (antibody)
- NT50 (B.1.351) (nM), pseudovirus neutralization: 0.36 nM
